41 sequences from the nanobody polyreactivity screen of Harvey et al. (2022) can be followed below.

A short description of this series: yeast display, Sf9 membrane polyspecificity reagent, FACS + sequencing; frameworks hold sequencing errors. A digest of the protocol: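 Nanobodies from a synthetic yeast display library (Saccharomyces cerevisiae BJ5465), induced 36–48 hours with galactose, were stained 1 hour at 4 °C with 10% biotinylated, detergent-solubilized Sf9 membrane reagent, enriched on streptavidin microbeads, then FACS-sorted. Anti-HA (expression) and streptavidin (reagent binding) fluorescence set low and high (top ~1%) gates. Polyreactivity labels come from the gate of origin. Genes were colony-PCR amplified, MiSeq 2 × 250 sequenced and filtered by CDR length.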
For the sequence “QVQLVESGGGLVQAGGSLRLSCAASGSTFGPNAMGWYRQAPGKERELVAAINTRGGSTYYADSVKGRFTISRDNAKNTVYLQMNSLKPEDTAVYYCAAEYVVWYLDRFNYWGQGTQVTVSS”, the “polyreactivity (PSR sort gate)” value is “high polyreactivity”.

On to “QVQLVESGGGLVQAGGSLRLSCAASGSTFGPNAMGWYRQAPGNERELVAAITWSGDSTYYADSVKGRFTISRDNAKNTVYLQMNSLKPEDTAVYYCNTDRNVWYAGYDYWGQGTQVSVSS”, for which the “polyreactivity (PSR sort gate)” value was “low polyreactivity”.

As for “QVQLVESGGGLVQAGGSLRLSCAASGSTFGPYAMGWYRPAPGKERELVADITSSDGSTYYADSVKGRFTISRDNAKNSVYFHLNSLKREDTAVYYCNADYRYIWTYWGWTIYDYWGQGTQVTVSS”, the “polyreactivity (PSR sort gate)” value is given as “high polyreactivity”.

For the sequence “QVQLVESGGGLVQAGGSLRLSCAASGSTFGPYAMGWYRQAHGKVRELVAAITESGDSTYYADSVKGRFTISRDNAKNTVYLQMNSLKPEDTAVYYCAAEFYGDKMDYWGQGTQVTVSS”, the “polyreactivity (PSR sort gate)” value is listed as “low polyreactivity”.

Take “QVQLVESGGGLVQAGGSLRLSCAASGSTFGPYAMGWYRQAPGKERELVAAITKSGGRTYYADSVKGRFTISRDNAKNTVYLQMNSLKPEDTAVYYCAAYGSVGLEYWGQGTQVTVSS”: the “polyreactivity (PSR sort gate)” value is reported as “high polyreactivity”.

“QVQLVESGGGLVQAGGSLRLSCAASGSTFGPYAMGWYRQAPGKERELVAAITSSGGTTYYADSVKGRFTISRDNAKNTVYLQMNSLKPEDTAVYYCNTRRHGWKGVAYDYWGQGTQVTVSS”: the “polyreactivity (PSR sort gate)” value was “low polyreactivity”.

On to “QVQLVESGGGLVQAGGSLRLSCAASGSTFGPYAMGWYRQAPGKERELVATITRNGGSTYYADSVKGRFTISRDNAKNTVYLQMNILKPEDTAVYYCNAEGRWSSFTQRMDYWGQGTQVTVSS”, for which the “polyreactivity (PSR sort gate)” value is reported as “low polyreactivity”.

As for “QVQLVESGGGLVQAGGSLRLSCAASGSTFGPYTMGWYRQAAGKERELVAAITGGGDSTYYADSVKGRFTISRDNAKNTVYLQMNSLKPEDTAVYYCAAKKPTTRMGYWGQGTQVTVSS”, the “polyreactivity (PSR sort gate)” value is given as “low polyreactivity”.

Turning to “QVQLVESGGGLVQAGGSLRLSCAASGSTFGQYAMGWYRQAPGKERELVAAISTSGGSTYYADSVKGRFTISRDNAKNTVYLQMNSLKPEDTAVYYCAVDRLPSYPTGFDYWGQGTQVTVSS”, the “polyreactivity (PSR sort gate)” value is on record as “high polyreactivity”.

Turning to “QVQLVESGGGLVQAGGSLRLSCAASGSTFGRKAMAWYRQAPGKEMELVAVISKSGGSTYYADTVKGRFTISRDNAKNTVYLQMNSLKPEDTAVYYCAASLKYRRRMGYWGQGTQVTVSS”, the “polyreactivity (PSR sort gate)” value is on record as “high polyreactivity”.

In the case of “QVQLVESGGGLVQAGGSLRLSCAASGSTFGRNAMGWYRQAPGKERELVAAISKTGGSTYYADSVKGRFTISRDTAKNTVYLQMNSLKPEDTAVYYCAARIRGFRTYYYWGQGTQVTVSS”, the “polyreactivity (PSR sort gate)” value is “high polyreactivity”.

For “QVQLVESGGGLVQAGGSLRLSCAASGSTFGRYAMGWSRQAPGKEWELVAAISGRGGSTYYADSVKGRFTISRDNAKNTVYLQMNSLKPEDTAVYYCAVRYYSARYWYGYDYWGQGTQVTVSS”, the “polyreactivity (PSR sort gate)” value was “high polyreactivity”.

As for “QVQLVESGGGLVQAGGSLRLSCAASGSTFGRYAMGWYRQAPGKARELVAAITTSGGRTRYADSVKGRFTISRDNAKNTVYLQMNSLKPEDTAVYYCAASGAQGPDYDYWGQGTQVTVSS”, the “polyreactivity (PSR sort gate)” value was “low polyreactivity”.

On to “QVQLVESGGGLVQAGGSLRLSCAASGSTFGRYAMGWYRQAPGKERELVAAISARGGSTYYADSVKGRFTISRDNAKNTVYLQMNSLKPEDTAVYYCNVDYLLHGGRFDYWGQGTQVTVSS”, for which the “polyreactivity (PSR sort gate)” value is reported as “high polyreactivity”.

On to “QVQLVESGGGLVQAGGSLRLSCAASGSTFGRYAMGWYRQAPGKEREMVAAISQRGGSTYYADSVKGRFTISRDYAKNTVYLQMNSLKPEDTAVYYCAAYYTRIRNHYGYWGQGTQVTVSS”, for which the “polyreactivity (PSR sort gate)” value is reported as “high polyreactivity”.

Consider “QVQLVESGGGLVQAGGSLRLSCAASGSTFGSNAMGWYRQAPGKERELVAAIRWSGGSTYYADSVKGRFTISRDNAKNTVYLQMNSLKPEDTAVYYCAGSFFQYNRRFNYWVQGTQVTVSS”, for which the “polyreactivity (PSR sort gate)” value is listed as “high polyreactivity”.

For “QVQLVESGGGLVQAGGSLRLSCAASGSTFGSNAMGWYRQAPGKERELVAAIRWSGGSTYYADSVKGRFTISRDNAKNTVYLQMNSLKPEDTAVYYFAGYYFQYNRRFNYWGQGTQVTVSS”, the “polyreactivity (PSR sort gate)” value is given as “high polyreactivity”.

Take “QVQLVESGGGLVQAGGSLRLSCAASGSTFGSNDMGWYRPAPGKERELVAGITWSGGSTFYADSVKGRFTISRDTAKNTVYLQMNSLKPEDTAVYYCAVSTEVNRYHAKYDYWGQGTQVTVSS”: the “polyreactivity (PSR sort gate)” value is “low polyreactivity”.

For the sequence “QVQLVESGGGLVQAGGSLRLSCAASGSTFGSYAMGWYRQAPGKERELVAAISRGGGSTYYADSVKGRFTISRDNAKNTVYLQMKSLKPEDTAVYYCAASFSRYGLVLYSIEDYWGQGTQVTVSS”, the “polyreactivity (PSR sort gate)” value is on record as “high polyreactivity”.

“QVQLVESGGGLVQAGGSLRLSCAASGSTFGSYAMGWYRQAPGKERELVASISLSDGSTYADSVKGRFTISRDNAKNTVYLQMNSLKQEDTAVYYCNVDWFSHDSDYYSFAYDYWGQGTQVTVSS”: the “polyreactivity (PSR sort gate)” value is “high polyreactivity”.

On to “QVQLVESGGGLVQAGGSLRLSCAASGSTFGSYVMGWYRQAPGKERELVAAISQRGTSTYYADSVKGRFTISRDNAKNTVYLQMNSLKPEDTAVYYCNALYWQIGDDYWGQGTQVTVSS”, for which the “polyreactivity (PSR sort gate)” value was “high polyreactivity”.

As for “QVQLVESGGGLVQAGGSLRLSCAASGSTFGTNAMGWYRQAPGKEREFVAAISRRGGRTYYADSVKGRFTISRDNAKNTVYLQMNSLKPEDTAVYYCNAVSTGQGLYDYWGQGTQVTVSS”, the “polyreactivity (PSR sort gate)” value is reported as “high polyreactivity”.

As for “QVQLVESGGGLVQAGGSLRLSCAASGSTFGTNAMGWYRQAPGKERELVAAISVSSTYYADSVKGRFTISRDNAKNTVYLQMNSLKPEDTAVYYCAADNSYGYRLDYWGQGTQVTVSS”, the “polyreactivity (PSR sort gate)” value is “low polyreactivity”.

Regarding “QVQLVESGGGLVQAGGSLRLSCAASGSTFGTNAMGWYRQAPGKERELVARINSSASTTYADSVKGRFTISRDNAKNTVYLQMNSLKPEDTAVYYCNADDRHSRVGHSWQDAQFDYWVQGTQVTVSS”, the “polyreactivity (PSR sort gate)” value is listed as “high polyreactivity”.

On to “QVQLVESGGGLVQAGGSLRLSCAASGSTFGTYAMGWYRQAPGKEREFVAVIRWSGGSTYYADSVKGRFTISRDNAKNTVYLQMNSLKPEDTAVYYCNADTRVKYVGWMYYWGQGTQVTVSS”, for which the “polyreactivity (PSR sort gate)” value is reported as “high polyreactivity”.

Regarding “QVQLVESGGGLVQAGGSLRLSCAASGSTFGTYAMGWYRQAPGKERELVAAINTSGGSTTYADSVKGRFTISRDNAKNTVYLQMNSLKPEDTAVYYCAKDTTGDAYSEYDYWGQGTQVTVSS”, the “polyreactivity (PSR sort gate)” value was “low polyreactivity”.

As for “QVQLVESGGGLVQAGGSLRLSCAASGSTFGVNAMGWYRQAPGKERELVAAIRSAVPTYYADSVKGRFTISRDNAMNTVYLQMNSLKPEETAVYYCAARHRESQRRYDYWGQGTQVTVSS”, the “polyreactivity (PSR sort gate)” value is given as “high polyreactivity”.

As for “QVQLVESGGGLVQAGGSLRLSCAASGSTFGVNARGWYRQAPGKERELVAGITWTGGSSYYADSVKGRFTISRDNAKNTVYLQMNSLKPEDTAVYYCAKDWYSSYYDDSEDSWGQGTQVTVSS”, the “polyreactivity (PSR sort gate)” value is “low polyreactivity”.

On to “QVQLVESGGGLVQAGGSLRLSCAASGSTFGVSAMGWSRQAPGKERELVAAISGRGGRTYYADSVKGRFTISRDNAKNTVYLLMNSLKPEDTAVYYFAVVGSAYQSRYDYWGQGTQVTVSS”, for which the “polyreactivity (PSR sort gate)” value is “high polyreactivity”.

Regarding “QVQLVESGGGLVQAGGSLRLSCAASGSTFGVYAMGRYRQAPGKERELVAAISYGDSTNYADSVKGRFTISRDNAKNTVYLQMNSLIPEDTAVYYCNALELYAAYPEYYLYYWYDYWGQGTQVNVSS”, the “polyreactivity (PSR sort gate)” value is listed as “high polyreactivity”.

“QVQLVESGGGLVQAGGSLRLSCAASGSTFGWNTMGWYRQAPGKERELVAAISWSGDRTYYADSVKGRFTISRDNAKNTVYLQMNSLKPDDTAVYYCARQRYYGYYYWGQGTQVTVSS”: the “polyreactivity (PSR sort gate)” value is “high polyreactivity”.

For the sequence “QVQLVESGGGLVQAGGSLRLSCAASGSTFGWYAMGWDRQAPGKERELVAAIRNNDGRTYYADSVKGRFTISRDNAKNTVYLQMNSLKPEDTAVDYCNKRLDTVGWYHGYNYWGQGTQVTVSS”, the “polyreactivity (PSR sort gate)” value is “low polyreactivity”.

Consider “QVQLVESGGGLVQAGGSLRLSCAASGSTFGWYAMGWFRQAPGKERELVAAITSGGSTKYADSVKGRFTISRDNAKNTVYLQMNSLKPEDTAVYYCATVRGYYSPVQVIGYFWGQGTQVTVSS”, for which the “polyreactivity (PSR sort gate)” value was “high polyreactivity”.

In the case of “QVQLVESGGGLVQAGGSLRLSCAASGSTFGWYAMGWYRQAPGKERELVAAISTSGNTYYADSVKGRFTISRDNAKNTVYLQMNSLKPEDTAVYYCAKYVNPDHDYWGQGTQVTVSS”, the “polyreactivity (PSR sort gate)” value is “low polyreactivity”.

As for “QVQLVESGGGLVQAGGSLRLSCAASGSTFGWYAMGWYRQAPGKERELVASISRSGGRTFYADSVKGRFTISRDNAKNTVYLQMNRLKPEDTAVYYCAADALIYYKGSPDYYWGQGTQVNVSS”, the “polyreactivity (PSR sort gate)” value is recorded as “high polyreactivity”.

As to “QVQLVESGGGLVQAGGSLRLSCAASGSTFGWYAMGWYRQAPGKERELVATISTTGGRTYYADSVKGRFTISRDNAKNTVYLQMNSLKPEDTAVYYCAARAFYKRYFAFDYWGQGTQVTVSS”, the “polyreactivity (PSR sort gate)” value is “high polyreactivity”.

Take “QVQLVESGGGLVQAGGSLRLSCAASGSTFGWYAMGWYRQAPGKETELDAAISWSGGSTYYADSVKGRFTISRDNAKNTVYLQMNSLKPEDTAVYYCARDTQYPYYFLMDYWGQGTQVTVSS”: the “polyreactivity (PSR sort gate)” value was “low polyreactivity”.

Regarding “QVQLVESGGGLVQAGGSLRLSCAASGSTFGWYTMAWYRQAPGKERELVAAITSRGTRTSYADSVKGRFTISRDNAKNTVYLQMNSLKPEETAVYYCAARVFRGLGEYYWGQGTQVTVSS”, the “polyreactivity (PSR sort gate)” value is “high polyreactivity”.

Regarding “QVQLVESGGGLVQAGGSLRLSCAASGSTFGWYTMGWYRQAPGKERELVAAINYSGGSTYYADSVKGRFTISRDNAKNTVYLQMISLKPEDTAVYYCAADGTWSIYGGLYYWGQGTQVTVSS”, the “polyreactivity (PSR sort gate)” value is recorded as “low polyreactivity”.

Regarding “QVQLVESGGGLVQAGGSLRLSCAASGSTFGYNAMGWSRPAPGKERELVAAITWSGGSTYYADSVKGRFTISRDNAKNTVYLQMNSLKPEDTAVYYCAADDWYNSKWHYYYWGQGTQVTVSS”, the “polyreactivity (PSR sort gate)” value was “low polyreactivity”.

For “QVQLVESGGGLVQAGGSLRLSCAASGSTFGYNAMGWYRQAPGKERELVAAIRRSGGSTYYADSVKGRFTISRDNAKNTVYLQMNSLKPEDTAVYYCAAAGGKRHEYWGQGTQVTVSS”, the “polyreactivity (PSR sort gate)” value was “high polyreactivity”.
